Legend:
Assay in all cases: cell-based or functional assay
[1] = target: Bacillus subtilis xylanase variant D11F/R122D/Y113A (modifications made to SEQ ID No. 1) (Bacillus subtilis) (UniProt P18429)
[2] = target: Bacillus subtilis xylanase variant G13Y/T110A/Y113D/R122D/K154R/N159D/Q175L (modifications made to SEQ ID No. 1) (Bacillus subtilis) (UniProt P18429)
[3] = target: Bacillus subtilis xylanase variant G13Y/K99Y/T104W/Y113D/R122D/Q175L (modifications made to SEQ ID No. 1) (Bacillus subtilis) (UniProt P18429)
[4] = target: Bacillus subtilis xylanase variant G13Y/K99Y/T104W/T110A/Y113D/R122F/K154R/N159D/Q175L (modifications made to SEQ ID No. 1) (Bacillus subtilis) (UniProt P18429)
[5] = target: Bacillus subtilis xylanase variant G13Y/T110A/Y113D/R122D/S162D/Q175L (modifications made to SEQ ID No. 1) (Bacillus subtilis) (UniProt P18429)
[6] = target: Bacillus subtilis xylanase variant G12F/Y113D/R122D/Q175L (modifications made to SEQ ID No. 1) (Bacillus subtilis) (UniProt P18429)
[7] = target: Bacillus subtilis xylanase variant G13Y/I77M/K99Y/T104W/T110A/Y113D/R122F/K154R/N159D/Q175L (modifications made to SEQ ID No. 1) (Bacillus subtilis) (UniProt P18429)
[8] = target: Bacillus subtilis xylanase variant BS3 (wildtype with D11F/R122D mutations) (Bacillus subtilis) (UniProt P18429)
[9] = target: Bacillus subtilis xylanase variant D11F/R122D/T110A/Y113A (modifications made to SEQ ID No. 1) (Bacillus subtilis) (UniProt P18429)
[10] = target: Bacillus subtilis xylanase variant G13Y/Y113D/R122F/Q175L (modifications made to SEQ ID No. 1) (Bacillus subtilis) (UniProt P18429)
[11] = target: Bacillus subtilis xylanase variant G13Y/Y113D/R122D/Q175L (modifications made to SEQ ID No. 1) (Bacillus subtilis) (UniProt P18429)
[12] = target: Bacillus subtilis xylanase variant D11F/R122D/Q175Y/S179Y (modifications made to SEQ ID No. 1) (Bacillus subtilis) (UniProt P18429)
[13] = target: Bacillus subtilis xylanase variant G13Y/T110A/Y113D/R122F/Q175L (modifications made to SEQ ID No. 1) (Bacillus subtilis) (UniProt P18429)
[14] = target: Bacillus subtilis XynA wildtype xylanase (SEQ ID No. 1), no modifications (Bacillus subtilis) (UniProt P18429)
[15] = target: Bacillus subtilis xylanase variant D11F/R122D/T110A (modifications made to SEQ ID No. 1) (Bacillus subtilis) (UniProt P18429)
[16] = target: Bacillus subtilis xylanase variant G13Y/K99Y/T104W/T110A/Y113D/I118V/R122F/K154R/N159D/Q175L (modifications made to SEQ ID No. 1) (Bacillus subtilis) (UniProt P18429)
[17] = target: Bacillus subtilis xylanase variant D11F/R122D/Q175E (modifications made to SEQ ID No. 1) (Bacillus subtilis) (UniProt P18429)
[18] = target: Bacillus subtilis xylanase variant G13Y/I15Y/Y113D/R122D/Q175L (modifications made to SEQ ID No. 1) (Bacillus subtilis) (UniProt P18429)
[19] = target: Bacillus subtilis xylanase variant G13Y/K99Y/T104W/T110A/Y113D/N114D/R122F/K154R/N159D/Q175L (modifications made to SEQ ID No. 1) (Bacillus subtilis) (UniProt P18429)
[20] = target: Bacillus subtilis xylanase variant G13Y/K99Y/T104W/T110A/Y113D/R122F/K154R/N159D/Q175K (modifications made to SEQ ID No. 1) (Bacillus subtilis) (UniProt P18429)
[21] = target: Bacillus subtilis xylanase variant G13Y/K99Y/T104W/T110A/Y113D/N114Y/R122F/K154R/N159D/Q175L (modifications made to SEQ ID No. 1) (Bacillus subtilis) (UniProt P18429)
[22] = target: Bacillus subtilis xylanase variant G13Y/K99Y/T104W/T110A/Y113D/N114F/R122F/K154R/N159D/Q175L (modifications made to SEQ ID No. 1) (Bacillus subtilis) (UniProt P18429)
[23] = target: Bacillus subtilis xylanase variant G13Y/T110A/Y113D/R122D/S162E/Q175L (modifications made to SEQ ID No. 1) (Bacillus subtilis) (UniProt P18429)
[24] = target: Bacillus subtilis xylanase variant G13Y/K99Y/T104W/T110A/Y113D/N114Y/R122F/K154R/N159D/L175K (modifications made to SEQ ID No. 1) (Bacillus subtilis) (UniProt P18429)
[25] = target: Bacillus subtilis xylanase variant G13Y/G34K/T110A/Y113D/R122D/Q175L (modifications made to SEQ ID No. 1) (Bacillus subtilis) (UniProt P18429)
[26] = target: Bacillus subtilis xylanase variant G13Y/K99Y/T104W/T110A/Y113D/R122F/K154R/N159D/Y166F/Q175L (modifications made to SEQ ID No. 1) (Bacillus subtilis) (UniProt P18429)
[27] = target: Bacillus subtilis xylanase variant G13Y/T110A/Y113D/R122D/W164F/Q175L (modifications made to SEQ ID No. 1) (Bacillus subtilis) (UniProt P18429)
[28] = target: Bacillus subtilis xylanase variant G13Y/I77Y/K99Y/T104W/T110A/Y113D/R122F/K154R/N159D/Q175L (modifications made to SEQ ID No. 1) (Bacillus subtilis) (UniProt P18429)
[29] = target: Bacillus subtilis xylanase variant G13Y/T110A/Y113D/R122D/Q175L (modifications made to SEQ ID No. 1) (Bacillus subtilis) (UniProt P18429)
[30] = target: Bacillus subtilis xylanase variant G13Y/I77V/K99Y/T104W/T110A/Y113D/R122F/K154R/N159D/Q175L (modifications made to SEQ ID No. 1) (Bacillus subtilis) (UniProt P18429)
[31] = target: Bacillus subtilis xylanase variant G13Y/I77S/K99Y/T104W/T110A/Y113D/R122F/K154R/N159D/Q175L (modifications made to SEQ ID No. 1) (Bacillus subtilis) (UniProt P18429)
[32] = target: Bacillus subtilis xylanase variant G13Y/K99Y/T104W/T110A/Y113D/N114D/R122F/K154R/N159D/L175K (modifications made to SEQ ID No. 1) (Bacillus subtilis) (UniProt P18429)
[33] = target: Bacillus subtilis xylanase variant G13Y/I77L/K99Y/T104W/T110A/Y113D/R122F/K154R/N159D/Q175L (modifications made to SEQ ID No. 1) (Bacillus subtilis) (UniProt P18429)
[34] = target: Bacillus subtilis xylanase variant G13F/Y113D/R122D/Q175L (modifications made to SEQ ID No. 1) (Bacillus subtilis) (UniProt P18429)
[35] = target: Bacillus subtilis xylanase variant G13Y/V81I/K99Y/T104W/T110A/Y113D/R122F/K154R/N159D/Q175L (modifications made to SEQ ID No. 1) (Bacillus subtilis) (UniProt P18429)

Sequence of crude xylanase inhibitor preparation from wheat (Triticum aestivum) flour, containing both TAXI and XIP (main, form in doubt): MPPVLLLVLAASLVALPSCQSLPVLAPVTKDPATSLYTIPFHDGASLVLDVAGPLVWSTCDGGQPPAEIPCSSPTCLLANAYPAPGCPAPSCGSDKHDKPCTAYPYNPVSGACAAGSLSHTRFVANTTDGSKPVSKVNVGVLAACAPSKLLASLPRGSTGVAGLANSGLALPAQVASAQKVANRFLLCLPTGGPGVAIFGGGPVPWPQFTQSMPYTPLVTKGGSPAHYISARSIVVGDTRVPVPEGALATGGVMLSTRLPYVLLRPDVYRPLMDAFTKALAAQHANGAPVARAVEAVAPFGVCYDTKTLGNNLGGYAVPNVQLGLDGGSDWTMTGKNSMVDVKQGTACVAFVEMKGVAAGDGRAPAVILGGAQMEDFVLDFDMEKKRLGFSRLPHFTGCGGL

% Activity @ 5.6 XIU/ml (residual xylanase activity) [1]: 100%
% Activity @ 50 XIU/ml (residual xylanase activity) [2]: 32%
% Activity @ 33.5 XIU/ml (residual xylanase activity) [3]: 80%
% Activity @ 50 XIU/ml (residual xylanase activity) [4]: 64%
% Activity @ 50 XIU/ml (residual xylanase activity) [5]: 40%
% Activity @ 5.6 XIU/ml (residual xylanase activity) [6]: 100%
% Activity @ 50 XIU/ml (residual xylanase activity) [7]: 46%
% Activity @ 5.6 XIU/ml (residual xylanase activity) [8]: 100%
% Activity @ 33.5 XIU/ml (residual xylanase activity) [8]: 100%
% Activity @ 50 XIU/ml (residual xylanase activity) [8]: 95%
% Activity @ 5.6 XIU/ml (residual xylanase activity) [9]: 99%
% Activity @ 50 XIU/ml (residual xylanase activity) [10]: 90%
% Activity @ 33.5 XIU/ml (residual xylanase activity) [11]: 86%
% Activity @ 5.6 XIU/ml (residual xylanase activity) [12]: 100%
% Activity @ 50 XIU/ml (residual xylanase activity) [13]: 65%
% Activity @ 5.6 XIU/ml (residual xylanase activity) [14]: 29%
% Activity @ 5.6 XIU/ml (residual xylanase activity) [15]: 98%
% Activity @ 33.5 XIU/ml (residual xylanase activity) [15]: 100%
% Activity @ 50 XIU/ml (residual xylanase activity) [16]: 79%
% Activity @ 5.6 XIU/ml (residual xylanase activity) [17]: 100%
% Activity @ 33.5 XIU/ml (residual xylanase activity) [18]: 76%
% Activity @ 50 XIU/ml (residual xylanase activity) [19]: 79%
% Activity @ 50 XIU/ml (residual xylanase activity) [20]: 72%
% Activity @ 50 XIU/ml (residual xylanase activity) [21]: 78%
% Activity @ 50 XIU/ml (residual xylanase activity) [22]: 79%
% Activity @ 50 XIU/ml (residual xylanase activity) [23]: 44%
% Activity @ 50 XIU/ml (residual xylanase activity) [24]: 84%
% Activity @ 50 XIU/ml (residual xylanase activity) [25]: 97%
% Activity @ 50 XIU/ml (residual xylanase activity) [26]: 68%
% Activity @ 50 XIU/ml (residual xylanase activity) [27]: 29%
% Activity @ 50 XIU/ml (residual xylanase activity) [28]: 37%
% Activity @ 33.5 XIU/ml (residual xylanase activity) [29]: 50%
% Activity @ 50 XIU/ml (residual xylanase activity) [30]: 45%
% Activity @ 50 XIU/ml (residual xylanase activity) [31]: 20%
% Activity @ 50 XIU/ml (residual xylanase activity) [32]: 79%
% Activity @ 50 XIU/ml (residual xylanase activity) [33]: 75%
% Activity @ 5.6 XIU/ml (residual xylanase activity) [34]: 100%
% Activity @ 33.5 XIU/ml (residual xylanase activity) [34]: 90%
% Activity @ 50 XIU/ml (residual xylanase activity) [35]: 46%
Substance: crude xylanase inhibitor preparation from wheat (Triticum aestivum) flour, containing both TAXI and XIP
